Data from patent publication US20180186871A1 (SINGAPORE HEALTH SERVICES PTE, published 2018).

T1: human IL-11 (human, UniProt P20809 22-199)
T1 sequence (looked up): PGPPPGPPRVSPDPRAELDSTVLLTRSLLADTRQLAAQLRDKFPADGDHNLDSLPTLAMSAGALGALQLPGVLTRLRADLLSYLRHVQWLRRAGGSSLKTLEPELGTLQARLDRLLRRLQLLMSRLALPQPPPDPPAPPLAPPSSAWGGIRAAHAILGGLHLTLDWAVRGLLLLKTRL


Target: T1, human IL-11
Assay: cell-based or functional assay
Further: test concentration or dose not given here.

MMP2 production (ng/ml), TGFB1-stimulated human atrial fibroblasts, Experiment 1 (NEG 42.7, POS 70.2) [ng/mL] | MMP2 production (ng/ml), TGFB1-stimulated human atrial fibroblasts, Experiment 2 (NEG 36.2, POS 62.3) [ng/mL] | Binder
51.9 | 47.7 | YU112-H01 (scFv) scFv: QVQLVESGGGVVQPGRSLRLSCAASGFTFGSYGMHWVRQAPGKGLEWVAVISYDGSNKYYADSVKGRFTISRDNSKNTLYLQMNSLRAEDTAVYYCAKGSYYFDYWGQGTLVTVSSGSASAPKLEEGEFSEARVETTLTQSPGTLSLSPGERATLSCRASQSVSSSYLAWYQQKPGQAPRLLIYGASSRATGIPDRFSGSGSGTDFTLTISSLQPDDFATYYCQQSYSTPTWTFGQGTKVEIK
54 | 45.4 | YU100-G10 (scFv) scFv: QVQLVQSGGGVVQPGRSLRLSCAASGFTFSSYGMHWVRQAPGKGLEWVAVISYDGSNKYYADSVKGRFTISRDNSKNTLYLQMNSLRAEDTAVYYCAKIGATDPLDYWGQGTLVTVSSGSASAPKLEEGEFSEARVQSALTQPASVSGSLGQSITMSCTGTRRDVGGYDFVSWYQQYPGKAPKLIIYDVSNRPSGVSNRFTGSKSGNTASLTISGLQAEDEADYYCCSYAGTYTWVFGGGTKVTVL
55.2 | 50.1 | YU112-C05 (scFv, not shown: a dimerising Fc or GST) scFv: EVQLVESGGGVVQPGRSLRLSCAASGFTFSSYAMHWVRQAPGKGLEWVAVISYDGSNKYYADSVKGRFTISRDNSKNTLYLQMNSLRAEDTAVYYCARIMGYDYGDYDVVDYWGQGTLVTVSSGSASAPKLEEGEFSEARVQSALTQPRSVSGSPGQSVTISCTGTISDVGGYNYVSWYQQHPGKAPKLMIYDVTKRPSGVPDRFSGSKSGNTASLTISGLQAEDEAGYYCSSYAGSYTWVFGGGTELTVL
65.3 | 58 | YU112-H02 (scFv) scFv: QVQLVESGGGVVQPGRSLRLSCAASGFTFSSYGMHWVRQAPGKGLEWVAVISYDGSNKYYADSVKGRFTISRDNSKNTLYLQMNSLRAEDTAVYYCAKLSGPNGVDYWGQGTLVTVSSGSASAPKLEEGEFSEARVQPVLTQPRSVSGSPGQSVTISCTGTSSDVGGYNYVSWYQQHPGKAPKVMIYDVSKRPSGVPDRFSGSKSGNTASLTISGLQAEDEADYYCCSYAGSYTWVFGGGTKLTVL
59 | 49.7 | YU100-G07 (scFv) scFv: QVQLVESGGGVVQPGRSLRLSCAASGFTFSSYGMHWVRQAPGKGLEWVAVISYDGSNKYYADSVKGRFTISRDNSKNTLYLQMNSLRAEDTAVYYCAKIGATDPLDYWGQGTLVTVSSGSASAPKLEEGEFSEARVQSALTQPASVSGSPGQSITISCTGTSSDVGAYDYVSWYQQHPGKAPKLMIYDVTNRPSGVSNRFSGSKSGNTASLTISGLQAEDEADYYCASYTRSSVWVFGGGTKLTVL
55.3 | 40.6 | YU100-B08 (scFv) scFv: EVQLVQSGGGVVQPGRSLRLSCAASGFTFSSYGMHWVRQAPGKGLEWVAVISYDGSNKYYADSVKGRFTISRDNSKNTLYLQMNSLRAEDTAVYYCAKIGATDPLDYWGQGTLVTVSSGSASAPKLEEGEFSEARVQSALTQPASVSGSPGQSITISCTGTSSDVGGYNYVSWYQQHPGKVPRLLIYDVSNRPSGVSTRFSGSKSGNTASLTISGLQGEDEAEYYCSSFTSSTTWVFGGGTKLTVL

The next lines start with the binder.

Binder | MMP2 production (ng/ml), TGFB1-stimulated human atrial fibroblasts, Experiment 1 (NEG 42.7, POS 70.2) [ng/mL] | MMP2 production (ng/ml), TGFB1-stimulated human atrial fibroblasts, Experiment 2 (NEG 36.2, POS 62.3) [ng/mL]
YU112-F05 (scFv) scFv: EVQLVQSGGGVVQPGRSLRLSCAASGFTFGSYGMHWVRQAPGKGLEWVAVISYDGSNKYYADSVKGRFTISRDNSKNTLYLQMNSLRAEDTAVYYCAKIGATDPLDYWGQGTLVTVSSGSASAPKLEEGEFSEARVQSALTQPRSVSGSPGQSVTISCTGTSSDVGGYNYVSWYQQHPGKAPKLIIYDVNNRPSGVSNRFSASKSGNTASLTISGLQAEDEADYYCNSYTSGSTWVFGGGTKLTVL | 53.9 | 48.5
YU100-E01 (scFv) scFv: QVQLQQSGGGVVQPGRSLRLSCAASGFTFSSYGMHWVRQAPGKGLEWVAVISYDGSNKYYADSVKGRFTISRDNSKNTLYLQMNSLRAEDTAVYYCAKIGATDPLDYWGQGTLVTVSSGSASAPKLEEGEFSEARVQSALTQPASVSGSPGQSITISCTGTSNDIGAYNYVSWYQQHPGKAPKLLIYDVNNRPSGVSDRFSGSKSGNTASLTISGLQAEDEADYYCCSYAGSYSWVFGGGTKLTVLGQPKANPTVTLFPPSS | 59.3 | 51.8
YU100-A10 (scFv) scFv: EVQLVESGGGVVQPGRSLRLSCAASGFTFSSYGMHWVRQAPGKGLEWVAVISYDGSNKYYADSVKGRFTISRDNSKNTLYLQMNSLRAEDTAVYYCAKIGATDPLDYWGQGTLVTVSSGSASAPKLEEGEFSEARVLPVLTQPASVSGSPGQSITISCTGTSSDVGAYNYVSWYQQHPGKAPELMIYDVSNRPSGVSNRFSGSKSGNTASLTISGLQPEDEADYYCSSFTTSIAWVFGGGTKLTVL | 52.1 | 50.1
YU112-C03 (scFv, not shown: a dimerising Fc or GST) scFv: QVQLVESGGGVVQPGRSLRLSCAASGFTFSSYGMHWVRQAPGKGLEWVAVISYDGSNKYYADSVKGRFTISRDNSKNTLYLQMNSLRAEDTAVYYCAKGGKSYYGFDYWGQGTLVTVSSGSASAPKLEEGEFSEARVDSVMTQSPSSLSASVGDRVTITCRASQAINSYLNWYQQKPGKAPKLLIYAASSLQSGVPSRFSGSGSGTDFTLTISGLQPEDFATYYCQQSYSTPSWTFGQGTKVEIK | 57.6 | 53.3
YU100-F01 (scFv) scFv: QVQLVQSGGGVVQPGRSLRLSCAASGFTFSSYGMHWVRQAPGKGLEWVAVISYDGSNKYYADSVKGRFTISRDNSKNTLYLQMNSLRAEDTAVYYCAKIGATDPLDYWGQGTLVTVSSGSASAPKLEEGEFSEARVQSALTQPASVSGSPGQSITISCTGTGSDVGAYDYVSWYQQHPGKAPKLMIYDVNNRPSGVSNRFSGSKSGNTASLTISGLQAEDEAEYYCSSFATSISWVFGGGTRLTVL | 52.8 | 39.9
YU100-E05 (scFv) scFv: EVQLVQSGGGVVQPGRSLRLSCAASGFTFSSYGMHWVRQAPGKGLEWVAVISYDGSNKYYADSVKGRFTISRDNSKNTLYLQMNSLRAEDTAVYYCAKIGATDPLDYWGQGTLVTVSSGSASAPKLEEGEFSEARVQAVLTQPRSVSGSPGQSVTISCTGTSSDVGGYNYVSWYQQHPGKAPKLMIYDVSKRPSGVPDRFSGSKSGNTASLTISGLQAEDEADYYCCSYAGSYSWVFGGGTKLTVLGQPKAAPSVTLFPPSS | 56.3 | 50.2
YU100-D11 (scFv) scFv: QVQLVQSGGGVVQPGRSLRLSCAASGFTFSSYGMHWVRQAPGKGLEWVAVISYDGSNKYYADSVKGRFTISRDNSKNTLYLQMNSLRAEDTAVYYCAKIGATDPLDYWGQGTLVTVSSGSASAPKLEEGEFSEARVQSALTQPRSVSGSPGQSVTISCTGTSSNVGGYNYVSWYQQHPGKAPKLMIYDVSKRPSGVPDRFSGSKSGNTASLTISGLQAEDEANYYCASYAGNYNWVFGGGTKLTVLGQPKAAPSVTLFPPSS | 51.2 | 47.2
YU100-D05 (scFv) scFv: QVQLQQSGGGVVQPGRSLRLSCAASGFTFSSYGMHWVRQAPGKGLEWVAVISYDGSNKYYADSVKGRFTISRDNSKNTLYLQMNSLRAEDTAVYYCAKIGATDPLDYWGQGTLVTVSSGSASAPKLEEGEFSEARVQSALTQPASVSGSPGQLITISCTGTNSDVGGYNYVSWYQQHPGKAPKLMIYDVSNRPSGVSNRFSGSKSGNTASLTISGLQAEDEADYYCCSYAGSYTWVFGGGTKLTVLGQPKAAPSVTLFPPSS | 53.3 | 48.8
YU100-E04 (scFv) scFv: QVQLQQSGGGVVQPGRSLRLSCAASGFTFSSYGMHWVRQAPGKGLEWVAVISYDGSNKYYADSVKGRFTISRDNSKNTLYLQMNSLRAEDTAVYYCAKIGATDPLDYWGQGTLVTVSSGSASAPKLEEGEFSEARVQSALTQPRSVSGSPGQSVTISCTGTSSDVGGYNYVSWYQQHPGKTPKLMIYDVTKRPSGVPDHFSGSKSGNTASLTISGLQAEDEADYYCCSYAGSHIWVFGGGTKLTVLGQPKAAPSVTLFPPSS | 50 | 43.5
YU100-D02 (scFv) scFv: QVRLVQSGGGVVQPGRSLRLSCAASGFTFSSYGMHWVRQAPGKGLEWVAVISYDGSNKYYADSVKGRFTISRDNSKNTLYLQMNSLRAEDTAVYYCAKIGATDPLDYWGQGTLVTVSSGSASAPKLEEGEFSEARVQSALTQPRSVSGSPGQSVTISCTGTSGDVGTYNYVSWYQQHPGKAPKLMIFDVSKRPSGVPDRFSGSKSGNTASLTISGLQAEDEADYYCNSYAGSYTWVFGGGTKLTVLGQPKAAPSVTLFPPSS | 49.6 | 42.2
